Experimental findings from US20200033338A1 are described below.

For assay [1], the target named is Q111D human 39MIR mutant, IChBD fusion (human). In words: Western blot of peptide-IChBD fusion (Table 3).
For assay [2], the target named is K10N human 39MIR mutant, IChBD fusion (human). In words: Western blot of peptide-IChBD fusion (Table 3).
Assay [3] addresses V75I human 39MIR mutant, IChBD fusion (human). In words: Western blot of peptide-IChBD fusion (Table 3). Background: In western blotting, separated proteins are transferred to a membrane and probed.
Assay [4] deals with Torpedo 39MIR peptide-intein-chitin-binding domain (IChBD) fusion protein (Torpedo). In words: Western blot of peptide-IChBD fusion (Table 3).
Torpedo 39MIR peptide-intein-chitin-binding domain (IChBD) fusion protein (Torpedo), sequence (chain, as listed by the source): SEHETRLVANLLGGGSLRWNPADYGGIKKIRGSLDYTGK
For assay [5], the target named is V75I/Q111D human 39MIR double mutant, IChBD fusion (human). In words: Western blot of peptide-IChBD fusion (FIG. 7).
V75I/Q111D human 39MIR double mutant, IChBD fusion (human), sequence (chain, as listed by the source V75I Q111D V75I Q111D): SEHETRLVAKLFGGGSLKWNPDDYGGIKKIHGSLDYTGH
Assay [6] deals with K10N/D70A/V75I/Q111D human 39MIR quadruple mutant, IChBD fusion (human). In words: Western blot of peptide-IChBD fusion (FIG. 7).
K10N/D70A/V75I/Q111D human 39MIR quadruple mutant, IChBD fusion (human), sequence (chain, as listed by the source K10N D70A V75I Q111D K10N D70A V75I Q111D): as the sequence (chain, as listed by the source V75I Q111D V75I Q111D) above, with K10N, D22A counted along it
Assay [7] has as its target K10N/V75I human 39MIR double mutant, IChBD fusion (human). In words: Western blot of peptide-IChBD fusion (FIG. 7).
The target in assay [8] is K10N/Q111D human 39MIR double mutant, IChBD fusion (human). In words: Western blot of peptide-IChBD fusion (FIG. 7).
K10N/Q111D human 39MIR double mutant, IChBD fusion (human), sequence (chain, as listed by the source K10N Q111D K10N Q111D): as the sequence (chain, as listed by the source V75I Q111D V75I Q111D) above, with K10N, I27V counted along it
The target in assay [9] is K10N/D70A human 39MIR double mutant, IChBD fusion (human). In words: Western blot of peptide-IChBD fusion (FIG. 7).
K10N/D70A human 39MIR double mutant, IChBD fusion (human), sequence (chain, as listed by the source K10N D70A K10N D70A): as the sequence (chain, as listed by the source V75I Q111D V75I Q111D) above, with K10N, D22A, I27V, D35Q counted along it
Assay [10] has as its target K10N/V75I/Q111D human 39MIR triple mutant, IChBD fusion (human). In words: Western blot of peptide-IChBD fusion (FIG. 7).
The target in assay [11] is Torpedo 39MIR peptide-intein-chitin-binding domain (IChBD) fusion protein (Torpedo). In words: Western blot of peptide-IChBD fusion (FIG. 7).
Assay [12] deals with Torpedo 39MIR single mutant R79H, IChBD fusion (Torpedo). In words: Western blot of peptide-IChBD fusion (FIG. 5).
Torpedo 39MIR single mutant R79H, IChBD fusion (Torpedo), sequence (chain, as listed by the source R79H R79H): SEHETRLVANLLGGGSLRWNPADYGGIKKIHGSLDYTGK
The target of assay [13] is Torpedo 39MIR single mutant N10K, IChBD fusion (Torpedo). In words: Western blot of peptide-IChBD fusion (FIG. 5).
Torpedo 39MIR single mutant N10K, IChBD fusion (Torpedo), sequence (chain, as listed by the source N10K N10K): as the sequence (chain, as listed by the source R79H R79H) above, with N10K, H31R counted along it
The target of assay [14] is Torpedo 39MIR single mutant A70D, IChBD fusion (Torpedo). In words: Western blot of peptide-IChBD fusion (FIG. 5).
Torpedo 39MIR single mutant A70D, IChBD fusion (Torpedo), sequence (chain, as listed by the source A70D A70D): as the sequence (chain, as listed by the source R79H R79H) above, with A22D, H31R counted along it
Assay [15] addresses Torpedo 39MIR single mutant L12F, IChBD fusion (Torpedo). In words: Western blot of peptide-IChBD fusion (FIG. 5).
Assay [16] has as its target Torpedo 39MIR single mutant R66K, IChBD fusion (Torpedo). In words: Western blot of peptide-IChBD fusion (FIG. 5).
Assay [17] addresses Torpedo 39MIR peptide-intein-chitin-binding domain (IChBD) fusion protein (Torpedo). In words: Western blot of peptide-IChBD fusion (FIG. 5).
The target of assay [18] is Torpedo 39MIR single mutant I75V, IChBD fusion (Torpedo). In words: Western blot of peptide-IChBD fusion (FIG. 5).
Torpedo 39MIR single mutant I75V, IChBD fusion (Torpedo), sequence (chain, as listed by the source I75V I75V): as the sequence (chain, as listed by the source R79H R79H) above, with I27V, H31R counted along it
For assay [19], the target named is Torpedo 39MIR single mutant D111Q, IChBD fusion (Torpedo). In words: Western blot of peptide-IChBD fusion (FIG. 5).
Torpedo 39MIR single mutant D111Q, IChBD fusion (Torpedo), sequence (chain, as listed by the source D111Q D111Q): as the sequence (chain, as listed by the source R79H R79H) above, with H31R, D35Q counted along it
Assay [20] deals with Torpedo 39MIR single mutant K115H, IChBD fusion (Torpedo). In words: Western blot of peptide-IChBD fusion (FIG. 5).
Torpedo 39MIR single mutant K115H, IChBD fusion (Torpedo), sequence (chain, as listed by the source K115H K115H): as the sequence (chain, as listed by the source R79H R79H) above, with H31R, K39H counted along it
The target of assay [21] is D70A human 39MIR mutant, IChBD fusion (human). In words: Western blot of peptide-IChBD fusion (Table 3).
D70A human 39MIR mutant, IChBD fusion (human), sequence (chain, as listed by the source D70A D70A): as the sequence (chain, as listed by the source V75I Q111D V75I Q111D) above, with D22A, I27V, D35Q counted along it
In assay [22] the target is Human 39MIR peptide-intein-chitin-binding domain (IChBD) fusion protein (human). In words: Western blot of peptide-IChBD fusion (Table 3).
Human 39MIR peptide-intein-chitin-binding domain (IChBD) fusion protein (human), sequence (chain, as listed by the source): as the sequence (chain, as listed by the source V75I Q111D V75I Q111D) above, with I27V, D35Q counted along it
For assay [23], the target named is Torpedo 39MIR peptide-intein-chitin-binding domain (IChBD) fusion protein (Torpedo). In words: Western blot (FIG. 3).
For assay [24], the target named is Human 39MIR peptide-intein-chitin-binding domain (IChBD) fusion protein (human). In words: Western blot of peptide-IChBD fusion (FIG. 7).
In assay [25] the target is Q111D human 39MIR mutant, IChBD fusion (human). In words: Western blot.
The target of assay [26] is K10N human 39MIR mutant, IChBD fusion (human). In words: Western blot.
Assay [27] has as its target V75I human 39MIR mutant, IChBD fusion (human). In words: Western blot.
For assay [28], the target named is K10N/D70A/V75I/Q111D human 39MIR quadruple mutant, IChBD fusion (human). In words: Western blot (FIG. 7).
The target in assay [29] is K10N/V75I/Q111D human 39MIR triple mutant, IChBD fusion (human). In words: Western blot (FIG. 7).
K10N/V75I/Q111D human 39MIR triple mutant, IChBD fusion (human), sequence (chain, as listed by the source K10N V75I Q111D K10N V75I Q111D): as the sequence (chain, as listed by the source V75I Q111D V75I Q111D) above, with K10N counted along it

Torpedo 39MIR single mutant R66K, IChBD fusion (Torpedo), sequence (chain, as listed by the source R66K R66K): as the sequence (chain, as listed by the source R79H R79H) above, with R18K, H31R counted along it
Q111D human 39MIR mutant, IChBD fusion (human), sequence (chain, as listed by the source Q111D Q111D): as the sequence (chain, as listed by the source V75I Q111D V75I Q111D) above, with I27V counted along it
K10N/V75I human 39MIR double mutant, IChBD fusion (human), sequence (chain, as listed by the source K10N V75I K10N V75I): as the sequence (chain, as listed by the source V75I Q111D V75I Q111D) above, with K10N, D35Q counted along it
Torpedo 39MIR single mutant L12F, IChBD fusion (Torpedo), sequence (chain, as listed by the source L12F L12F): as the sequence (chain, as listed by the source R79H R79H) above, with L12F, H31R counted along it
V75I human 39MIR mutant, IChBD fusion (human), sequence (chain, as listed by the source V75I V75I): as the sequence (chain, as listed by the source V75I Q111D V75I Q111D) above, with D35Q counted along it
K10N human 39MIR mutant, IChBD fusion (human), sequence (chain, as listed by the source K10N K10N): as the sequence (chain, as listed by the source V75I Q111D V75I Q111D) above, with K10N, I27V, D35Q counted along it

As for mAb 35 (antibody), the fold-change in binding relative to Torpedo 39MIR in [1] was determined as 0.06 fold; in assay [2] it was 0.01 fold; in assay [3], 0.03 fold; in [4] it was 1 fold; in [5] it was 0.92 fold; in [6], 1.7 fold. The fold-change in binding relative to Torpedo 39MIR in assay [7] is 1.1 fold; in assay [8], 2.31 fold; in [9], 0.31 fold; in assay [10] it was 2.97 fold; in assay [11], 1 fold; in [12] it was 1.91 fold. Also, the fold-change in binding relative to Torpedo 39MIR in assay [13] amounted to 0.29 fold; in assay [14] it was 0.93 fold; in assay [15], 1.42 fold; in [16], 0.62 fold; in assay [17], 1 fold.

Consider mAb 132A (antibody), for which the fold-change in binding relative to Torpedo 39MIR in assay [4] is 1 fold; in assay [5], 3.34 fold; in [6] it was 0.99 fold; in [7], 1.25 fold; in [8] it was 1.07 fold; in [9], 0.16 fold. Further, the fold-change in binding relative to Torpedo 39MIR came to 2.46 fold in assay [10]; 1 fold in assay [11]; 1.65 fold in assay [12]; 0.03 fold in assay [13]; 0.2 fold in assay [14]; 0.06 fold in [18]. The fold-change in binding relative to Torpedo 39MIR in assay [15] is 1.1 fold; in assay [19], 0.07 fold; in assay [20], 0.4 fold; in [16] it was 1.55 fold; in [17] it was 1 fold.

On to mAb 198 (antibody), for which the fold-change in binding relative to Torpedo 39MIR came to 0.59 fold in assay [1]; 0.23 fold in assay [2]; 0.02 fold in assay [21]; 0.65 fold in [3]; 0.02 fold in [22]; 1 fold in assay [4]. The fold-change in binding relative to Torpedo 39MIR in [5] was found to be 2.71 fold; in [6], 0.99 fold; in assay [7], 1.79 fold; in assay [8] it was 1.19 fold; in assay [9], 0.72 fold; in assay [24] it was 0.09 fold. The fold-change in binding relative to Torpedo 39MIR was 2.52 fold in [10]; 1 fold in assay [11]; 0.97 fold in assay [12]; 0.82 fold in [13]; 1.08 fold in assay [14]; 0.16 fold in [18]. Also, the fold-change in binding relative to Torpedo 39MIR in assay [15] turned out to be 0.9 fold; in [19] it was 0.16 fold; in assay [20], 1.07 fold; in assay [16], 1.03 fold; in assay [17] it was 1 fold. The same substance returned a fold stronger binding than to the human MIR mimic in assay [23] of 50 fold. The fold improvement in binding compared to the human 39MIR in assay [25] was 35.7 fold; in assay [26] it was 13 fold; in assay [27], 40 fold; in assay [28], 11 fold; in [29], 28 fold.
